Source: patent US20180194859A1

Target: Recombinant EGFR/His (UniProt P00533)
Experiment: SPR (Biacore T200), antibody captured on anti-human Fc, EGFR/His as analyte, 1:1 fit

αHER2×αEGFR LDAb (trastuzumab IgG2 azide clicked to cetuximab IgG2 DBCO) (bispecific antibody)
Kd: 2.8 nM
